Experimental data from publication PMC3326194 (Nature, 2012).

T1: corrinoid iron-sulfur protein (CFeSP) from Moorella thermoacetica (Moorella thermoacetica, UniProt Q07340 1-446; Q07341 1-323)
T1 sequence (looked up) 1: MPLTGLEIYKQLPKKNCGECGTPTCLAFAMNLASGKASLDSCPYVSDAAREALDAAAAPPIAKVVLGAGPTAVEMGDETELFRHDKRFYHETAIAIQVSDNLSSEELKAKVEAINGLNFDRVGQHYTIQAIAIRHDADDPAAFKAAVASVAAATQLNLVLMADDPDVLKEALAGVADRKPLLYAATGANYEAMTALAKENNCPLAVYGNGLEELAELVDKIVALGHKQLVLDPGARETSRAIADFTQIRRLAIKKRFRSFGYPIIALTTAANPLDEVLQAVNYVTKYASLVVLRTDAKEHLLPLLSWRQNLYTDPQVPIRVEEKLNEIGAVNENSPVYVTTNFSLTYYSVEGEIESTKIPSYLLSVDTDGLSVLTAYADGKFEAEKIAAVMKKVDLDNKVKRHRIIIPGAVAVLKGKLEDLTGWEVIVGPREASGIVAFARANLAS
T1 sequence (looked up) 2: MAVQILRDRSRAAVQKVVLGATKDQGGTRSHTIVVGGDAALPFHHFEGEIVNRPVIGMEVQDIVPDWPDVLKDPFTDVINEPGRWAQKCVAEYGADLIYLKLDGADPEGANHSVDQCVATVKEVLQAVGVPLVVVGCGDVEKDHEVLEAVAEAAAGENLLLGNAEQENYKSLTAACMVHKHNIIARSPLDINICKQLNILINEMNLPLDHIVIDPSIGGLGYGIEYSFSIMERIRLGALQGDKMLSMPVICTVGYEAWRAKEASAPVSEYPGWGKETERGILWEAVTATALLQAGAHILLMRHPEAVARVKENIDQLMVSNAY

T2: CFeSP large subunit from Moorella thermoacetica (Moorella thermoacetica, UniProt Q07340 1-446)
T2 sequence (looked up): T1 sequence (looked up) 1

B1: methyltransferase (MeTr) from Moorella thermoacetica (enzyme, UniProt Q46389 1-262, looked up)
chain: MLIIGERINGMFGDIKRAIQERDPAPVQEWARRQEEGGARALDLNVGPAVQDKVSAMEWLVEVTQEVSNLTLCLDSTNIKAIEAGLKKCKNRAMINSTNAEREKVEKLFPLAVEHGAALIGLTMNKTGIPKDSDTRLAFAMELVAAADEFGLPMEDLYIDPLILPANVAQDHAPEVLKTLQQIKMLADPAPKTVLGLSNVSQNCQNRPLINRTFLAMAMACGLDAAIADACDEALIETAATAEILLNQTVYCDSFVKMFKTR
B2: CFeSP small subunit from Moorella thermoacetica (natural protein, UniProt Q07341 1-323, looked up)
chain: T1 sequence (looked up) 2

Columns and labels:
Test in all cases: crystal structure
[1] = biological target: T1, corrinoid iron-sulfur protein (CFeSP) …
[2] = biological target: B2
crystal structure = biological target: the molecule itself
[3] = biological target: T2, CFeSP large subunit from Moorella …

Binder	binding result [1]	binding result [2]	stoichiometry N (crystal structure)	binding result [3]
B1	binds	binds	2	
B2				binds
